According to paper PMC5951372:

Experiments:
[1] = molecular target: murine double minute 2 (MDM2) protein fragment; test: atomic force microscopy; topographic maps of 20 x 20 µm^2 of the MDM2-functionalised photonic crystal surface after incubation with p53 (1.5 uM, 20 min); binding spots 10-20 nm high counted as p53•MDM2 complex; parameters: unit not given here
[2] = molecular target: murine double minute 2 (MDM2) protein fragment; test: photonic crystal bound-states-in-the-continuum resonance shift (label-free optical biosensor); MDM2 immobilised on the Si3N4 photonic crystal by APTES and BS3 (1.5 uM in 20 mM HEPES pH 7.4, 4 °C overnight), blocked with 5% non-fat dried milk in PBS; p53 1.5 uM in PBS, 20 min at room temperature, washed with PBS; transmission spectrum at θ = 0°

- surface density of the complex [1]: 0.24
- shift of the resonance wavelength [2]: 2.4 nm
Substance: p53 protein fragment (interacting domain of p53) (domain or fragment)
